Patent publication US12630600B2 (MEDIMMUNE LIMITED, priority 2022, dated 2026)
Starred links: 1 amine or outer side, 2 acyl side, 3 side chain; linkers in the order of their positions; H or OH if unused. Non-standard residues stand in square brackets, D forms with d. Groups on a side chain read outwards from the residue. Primed or numbered codes have the meaning given here. No end group written: not given here. *: point of attachment. C20 diacid = O=C(O)CCCCCCCCCCCCCCCCCCC(=O)*; C18 diacid = O=C(O)CCCCCCCCCCCCCCCCC(=O)*; γGlu = O=C(O)[C@H](CCC(=O)[*:2])N[*:1]; Palmitoyl = CCCCCCCCCCCCCCCC(=O)*; αMeF = C[C@](N)(Cc1ccccc1)C(=O)O; Myristoyl = CCCCCCCCCCCCCC(=O)*; PEG2′ = polyethylene glycol 2; αMeS = C[C@](N)(CO)C(=O)O; AEEA = NCCOCCOCC(=O)O; Aib = CC(C)(N)C(=O)O

Each binder was assayed against human GLP-1 receptor (human, UniProt P43220) (assay: cell-based or functional assay).

cAMP production EC50 [pM]	Binder
274	H[Aib]QGTFTSDVSK[αMeF]LDSK([AEEA-AEEA-γGlu-γGlu-C18 diacid])RAQDFVQWLL[Aib]T-NH2 (N-terminus assumed; SMILES CC(C)C[C@H](NC(=O)[C@H](Cc1c[nH]c2ccccc12)NC(=O)[C@H](CCC(N)=O)NC(=O)[C@@H](NC(=O)[C@H](Cc1ccccc1)NC(=O)[C@H](CC(=O)O)NC(=O)[C@H](CCC(N)=O)NC(=O)[C@H](C)NC(=O)[C@H](CCCNC(=N)N)NC(=O)[C@H](CCCCNC(=O)COCCOCCNC(=O)COCCOCCNC(=O)CC[C@H](NC(=O)CC[C@H](NC(=O)CCCCCCCCCCCCCCCCC(=O)O)C(=O)O)C(=O)O)NC(=O)[C@H](CO)NC(=O)[C@H](CC(=O)O)NC(=O)[C@H](CC(C)C)NC(=O)[C@](C)(Cc1ccccc1)NC(=O)[C@H](CCCCN)NC(=O)[C@H](CO)NC(=O)[C@@H](NC(=O)[C@H](CC(=O)O)NC(=O)[C@H](CO)NC(=O)[C@@H](NC(=O)[C@H](Cc1ccccc1)NC(=O)[C@@H](NC(=O)CNC(=O)[C@H](CCC(N)=O)NC(=O)C(C)(C)NC(=O)[C@@H](N)Cc1c[nH]cn1)[C@@H](C)O)[C@@H](C)O)C(C)C)C(C)C)C(=O)N[C@@H](CC(C)C)C(=O)NC(C)(C)C(=O)N[C@H](C(N)=O)[C@@H](C)O) [Peptide 463]
22.7	H[Aib]QGTFTSDVSK[αMeF]LDTK([AEEA-AEEA-γGlu-C18 diacid])RAQDFVRWLLE[Aib]G-OH (N-terminus assumed; SMILES CC(C)C[C@H](NC(=O)[C@H](Cc1c[nH]c2ccccc12)NC(=O)[C@H](CCCNC(=N)N)NC(=O)[C@@H](NC(=O)[C@H](Cc1ccccc1)NC(=O)[C@H](CC(=O)O)NC(=O)[C@H](CCC(N)=O)NC(=O)[C@H](C)NC(=O)[C@H](CCCNC(=N)N)NC(=O)[C@H](CCCCNC(=O)COCCOCCNC(=O)COCCOCCNC(=O)CC[C@H](NC(=O)CCCCCCCCCCCCCCCCC(=O)O)C(=O)O)NC(=O)[C@@H](NC(=O)[C@H](CC(=O)O)NC(=O)[C@H](CC(C)C)NC(=O)[C@](C)(Cc1ccccc1)NC(=O)[C@H](CCCCN)NC(=O)[C@H](CO)NC(=O)[C@@H](NC(=O)[C@H](CC(=O)O)NC(=O)[C@H](CO)NC(=O)[C@@H](NC(=O)[C@H](Cc1ccccc1)NC(=O)[C@@H](NC(=O)CNC(=O)[C@H](CCC(N)=O)NC(=O)C(C)(C)NC(=O)[C@@H](N)Cc1c[nH]cn1)[C@@H](C)O)[C@@H](C)O)C(C)C)[C@@H](C)O)C(C)C)C(=O)N[C@@H](CC(C)C)C(=O)N[C@@H](CCC(=O)O)C(=O)NC(C)(C)C(=O)NCC(=O)O) [Peptide 140]
22.8	H[Aib]QGTFTSDVSK[αMeF]LDTK([AEEA-AEEA-γGlu-C18 diacid])RARDFVQWLL[Aib]TE-NH2 (N-terminus assumed; SMILES CC(C)C[C@H](NC(=O)[C@H](Cc1c[nH]c2ccccc12)NC(=O)[C@H](CCC(N)=O)NC(=O)[C@@H](NC(=O)[C@H](Cc1ccccc1)NC(=O)[C@H](CC(=O)O)NC(=O)[C@H](CCCNC(=N)N)NC(=O)[C@H](C)NC(=O)[C@H](CCCNC(=N)N)NC(=O)[C@H](CCCCNC(=O)COCCOCCNC(=O)COCCOCCNC(=O)CC[C@H](NC(=O)CCCCCCCCCCCCCCCCC(=O)O)C(=O)O)NC(=O)[C@@H](NC(=O)[C@H](CC(=O)O)NC(=O)[C@H](CC(C)C)NC(=O)[C@](C)(Cc1ccccc1)NC(=O)[C@H](CCCCN)NC(=O)[C@H](CO)NC(=O)[C@@H](NC(=O)[C@H](CC(=O)O)NC(=O)[C@H](CO)NC(=O)[C@@H](NC(=O)[C@H](Cc1ccccc1)NC(=O)[C@@H](NC(=O)CNC(=O)[C@H](CCC(N)=O)NC(=O)C(C)(C)NC(=O)[C@@H](N)Cc1c[nH]cn1)[C@@H](C)O)[C@@H](C)O)C(C)C)[C@@H](C)O)C(C)C)C(=O)N[C@@H](CC(C)C)C(=O)NC(C)(C)C(=O)N[C@H](C(=O)N[C@@H](CCC(=O)O)C(N)=O)[C@@H](C)O) [Peptide 489]
118	H[Aib]QGTFTSDVSK[αMeF]LDTK([AEEA-AEEA-γGlu-C20 diacid])RARDFVRWLL[Aib]E-NH2 (N-terminus assumed; SMILES CC(C)C[C@H](NC(=O)[C@H](Cc1c[nH]c2ccccc12)NC(=O)[C@H](CCCNC(=N)N)NC(=O)[C@@H](NC(=O)[C@H](Cc1ccccc1)NC(=O)[C@H](CC(=O)O)NC(=O)[C@H](CCCNC(=N)N)NC(=O)[C@H](C)NC(=O)[C@H](CCCNC(=N)N)NC(=O)[C@H](CCCCNC(=O)COCCOCCNC(=O)COCCOCCNC(=O)CC[C@H](NC(=O)CCCCCCCCCCCCCCCCCCC(=O)O)C(=O)O)NC(=O)[C@@H](NC(=O)[C@H](CC(=O)O)NC(=O)[C@H](CC(C)C)NC(=O)[C@](C)(Cc1ccccc1)NC(=O)[C@H](CCCCN)NC(=O)[C@H](CO)NC(=O)[C@@H](NC(=O)[C@H](CC(=O)O)NC(=O)[C@H](CO)NC(=O)[C@@H](NC(=O)[C@H](Cc1ccccc1)NC(=O)[C@@H](NC(=O)CNC(=O)[C@H](CCC(N)=O)NC(=O)C(C)(C)NC(=O)[C@@H](N)Cc1c[nH]cn1)[C@@H](C)O)[C@@H](C)O)C(C)C)[C@@H](C)O)C(C)C)C(=O)N[C@@H](CC(C)C)C(=O)NC(C)(C)C(=O)N[C@@H](CCC(=O)O)C(N)=O) [Peptide 511]
167	H[Aib]QGTFTSDVSK[αMeF]LDRK([AEEA-AEEA-γGlu-C18 diacid])RAQDFVRWLLAE-NH2 (N-terminus assumed; SMILES CC(C)C[C@H](NC(=O)[C@H](CC(C)C)NC(=O)[C@H](Cc1c[nH]c2ccccc12)NC(=O)[C@H](CCCNC(=N)N)NC(=O)[C@@H](NC(=O)[C@H](Cc1ccccc1)NC(=O)[C@H](CC(=O)O)NC(=O)[C@H](CCC(N)=O)NC(=O)[C@H](C)NC(=O)[C@H](CCCNC(=N)N)NC(=O)[C@H](CCCCNC(=O)COCCOCCNC(=O)COCCOCCNC(=O)CC[C@H](NC(=O)CCCCCCCCCCCCCCCCC(=O)O)C(=O)O)NC(=O)[C@H](CCCNC(=N)N)NC(=O)[C@H](CC(=O)O)NC(=O)[C@H](CC(C)C)NC(=O)[C@](C)(Cc1ccccc1)NC(=O)[C@H](CCCCN)NC(=O)[C@H](CO)NC(=O)[C@@H](NC(=O)[C@H](CC(=O)O)NC(=O)[C@H](CO)NC(=O)[C@@H](NC(=O)[C@H](Cc1ccccc1)NC(=O)[C@@H](NC(=O)CNC(=O)[C@H](CCC(N)=O)NC(=O)C(C)(C)NC(=O)[C@@H](N)Cc1c[nH]cn1)[C@@H](C)O)[C@@H](C)O)C(C)C)C(C)C)C(=O)N[C@@H](C)C(=O)N[C@@H](CCC(=O)O)C(N)=O) [Peptide 461]
0.407	H[αMeS]QGS[αMeF]TSDVSKILDSK([PEG2′-PEG2′-γGlu-Myristoyl])AAQD[αMeF]VQ[Aib]IINT-NH2 [Peptide 135]
0.592	H[αMeS]QGS[αMeF]TSDVSKILDSK([PEG2′-PEG2′-γGlu-Palmitoyl])AAQD[αMeF]VQ[Aib]IINT-NH2 [Peptide 134]
12.6	H[Aib]QGTFTSDVSK[αMeF]LDTK([AEEA-AEEA-γGlu-C18 diacid])RARDFVQWLLE[Aib]K-NH2 (N-terminus assumed; SMILES CC(C)C[C@H](NC(=O)[C@H](Cc1c[nH]c2ccccc12)NC(=O)[C@H](CCC(N)=O)NC(=O)[C@@H](NC(=O)[C@H](Cc1ccccc1)NC(=O)[C@H](CC(=O)O)NC(=O)[C@H](CCCNC(=N)N)NC(=O)[C@H](C)NC(=O)[C@H](CCCNC(=N)N)NC(=O)[C@H](CCCCNC(=O)COCCOCCNC(=O)COCCOCCNC(=O)CC[C@H](NC(=O)CCCCCCCCCCCCCCCCC(=O)O)C(=O)O)NC(=O)[C@@H](NC(=O)[C@H](CC(=O)O)NC(=O)[C@H](CC(C)C)NC(=O)[C@](C)(Cc1ccccc1)NC(=O)[C@H](CCCCN)NC(=O)[C@H](CO)NC(=O)[C@@H](NC(=O)[C@H](CC(=O)O)NC(=O)[C@H](CO)NC(=O)[C@@H](NC(=O)[C@H](Cc1ccccc1)NC(=O)[C@@H](NC(=O)CNC(=O)[C@H](CCC(N)=O)NC(=O)C(C)(C)NC(=O)[C@@H](N)Cc1c[nH]cn1)[C@@H](C)O)[C@@H](C)O)C(C)C)[C@@H](C)O)C(C)C)C(=O)N[C@@H](CC(C)C)C(=O)N[C@@H](CCC(=O)O)C(=O)NC(C)(C)C(=O)N[C@@H](CCCCN)C(N)=O) [Peptide 480]

Each binder was assayed against human glucagon receptor (human, UniProt P47871) (assay: cell-based or functional assay).

cAMP production EC50 [pM]	Binder
335	H[Aib]QGTFTSDVSK[αMeF]LDTK([AEEA-AEEA-γGlu-C18 diacid])RAQDFVQWLL[Aib]T-OH (N-terminus assumed; SMILES CC(C)C[C@H](NC(=O)[C@H](Cc1c[nH]c2ccccc12)NC(=O)[C@H](CCC(N)=O)NC(=O)[C@@H](NC(=O)[C@H](Cc1ccccc1)NC(=O)[C@H](CC(=O)O)NC(=O)[C@H](CCC(N)=O)NC(=O)[C@H](C)NC(=O)[C@H](CCCNC(=N)N)NC(=O)[C@H](CCCCNC(=O)COCCOCCNC(=O)COCCOCCNC(=O)CC[C@H](NC(=O)CCCCCCCCCCCCCCCCC(=O)O)C(=O)O)NC(=O)[C@@H](NC(=O)[C@H](CC(=O)O)NC(=O)[C@H](CC(C)C)NC(=O)[C@](C)(Cc1ccccc1)NC(=O)[C@H](CCCCN)NC(=O)[C@H](CO)NC(=O)[C@@H](NC(=O)[C@H](CC(=O)O)NC(=O)[C@H](CO)NC(=O)[C@@H](NC(=O)[C@H](Cc1ccccc1)NC(=O)[C@@H](NC(=O)CNC(=O)[C@H](CCC(N)=O)NC(=O)C(C)(C)NC(=O)[C@@H](N)Cc1c[nH]cn1)[C@@H](C)O)[C@@H](C)O)C(C)C)[C@@H](C)O)C(C)C)C(=O)N[C@@H](CC(C)C)C(=O)NC(C)(C)C(=O)N[C@H](C(=O)O)[C@@H](C)O) [Peptide 35]
15	H[αMeS]QGS[αMeF]TSDVSKILDSK([PEG2′-PEG2′-γGlu-Myristoyl])AAQD[αMeF]VQ[Aib]IINT-NH2 [Peptide 135]
385	H[Aib]QGTFTSDVSK[αMeF]LDTK([AEEA-AEEA-γGlu-γGlu-C20 diacid])RARDFVQWLLE[Aib]G-NH2 [Peptide 458]
15	H[αMeS]QGS[αMeF]TSDVSKILDSK([PEG2′-PEG2′-γGlu-Palmitoyl])AAQD[αMeF]VQ[Aib]IINT-NH2 [Peptide 134]
